Data taken from patent publication US20190359722A1 (TOYO UNIVERSITY, published 2019).

Target: T1, full-length human EPHA2 expressed on 293T cells (pcDNA-DEST40-EPHA2) (human, UniProt P29317 24-976)
T1 construct: The stop codon was removed before transfer into pcDNA-DEST40; also called EPHA2-expressing 293T cells
Assay: flow cytometry, hybridoma supernatant on EPHA2-transfected 293T cells
Method: 293T cells were seeded at a density of 5×10⁴ cells/cm² on a collagen type I-coated flask (IWAKI), and were then cultured in DMEM supplemented with 10% FBS at 37° C. in 5% CO₂ under a humidified atmosphere overnight. On the following day, the 293T cells were transfected with each of pcDNA-DEST40-EPHA2 and pcDNA-DEST40-ERBB2 (negative control), using Lipofectamine 2000 (Invitrogen, Thermo Fisher Scientific), and thereafter, the resulting cells were further cultured at 37° C. in 5% CO₂ under a humidified atmosphere overnight. On the following day, the transfected cells were treated with trypsin, and were then washed with DMEM supplemented with 10% FBS. The resulting cells were suspended in 5% FBS-containing PBS. These cells were used in Cell-ELISA and flow cytometric analysis.
In order to eliminate false-positive results in the Cell-ELISA, the specific binding ability of antibodies generated by the hybridomas that had been determined to be positive in the Cell-ELISA was confirmed by flow cytometry. The cells prepared in the above 1)-6-1 were mixed with a culture supernatant of the hybridomas, and the obtained mixture was then incubated at 4° C. for 1 hour. […]

T1 sequence (P29317 24-976 limits assumed): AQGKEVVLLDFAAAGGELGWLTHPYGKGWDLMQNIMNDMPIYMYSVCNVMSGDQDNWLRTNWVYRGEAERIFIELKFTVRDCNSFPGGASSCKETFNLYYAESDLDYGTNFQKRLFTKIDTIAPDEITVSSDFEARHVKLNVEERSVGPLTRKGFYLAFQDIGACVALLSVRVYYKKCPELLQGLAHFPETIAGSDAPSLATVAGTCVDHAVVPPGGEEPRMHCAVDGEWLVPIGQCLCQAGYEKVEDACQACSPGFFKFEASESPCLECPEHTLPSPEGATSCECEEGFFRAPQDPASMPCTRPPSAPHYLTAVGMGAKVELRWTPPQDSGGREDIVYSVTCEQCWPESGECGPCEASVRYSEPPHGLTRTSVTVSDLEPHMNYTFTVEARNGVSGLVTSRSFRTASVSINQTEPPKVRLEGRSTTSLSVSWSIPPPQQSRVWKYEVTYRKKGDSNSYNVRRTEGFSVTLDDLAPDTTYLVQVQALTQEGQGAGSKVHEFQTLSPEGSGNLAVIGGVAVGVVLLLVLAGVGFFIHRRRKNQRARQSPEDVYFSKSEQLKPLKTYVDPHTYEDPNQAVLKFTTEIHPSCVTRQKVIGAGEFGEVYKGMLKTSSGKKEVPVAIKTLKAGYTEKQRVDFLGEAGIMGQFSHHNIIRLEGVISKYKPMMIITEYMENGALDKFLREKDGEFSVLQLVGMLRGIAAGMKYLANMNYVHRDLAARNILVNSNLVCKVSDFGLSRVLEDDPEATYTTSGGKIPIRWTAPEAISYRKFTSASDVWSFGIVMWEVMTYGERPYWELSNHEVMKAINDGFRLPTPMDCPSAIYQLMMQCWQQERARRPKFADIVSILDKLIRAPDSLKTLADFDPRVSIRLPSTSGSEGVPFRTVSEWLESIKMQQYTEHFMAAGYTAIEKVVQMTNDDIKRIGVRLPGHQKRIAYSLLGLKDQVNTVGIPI

B1: mouse anti-EPHA2 monoclonal antibody 57-1 (antibody, V domains shown)
VH: QIQLVQSGPELKKPGETVKISCKGSGYTFTNYGMNWVKQAPGKGLKWMAWINTDTGEPIFVEEFKGRFAFSLETSASTAYLQINNLTNEDTATYFCARSMGGFANWGQGTLVTVSA
VL: DIVMTQSPATLSVTPGDRVSLSCRASQNISDYLHWYQQKSHESPRLLIKYASQSISGIPSRFSGSGSGSDFTLTINSVEPEDVAMYYCQNGHTFPTFGAGTKLELKR
notes: The variable regions were found by 5'-RACE; Used unlabeled as capture antibody and biotin-labeled as detection antibody; also called biotin-labeled antibody 57-1
B1: binds.

B2: mouse anti-EPHA2 monoclonal antibody 230-1 (antibody, V domains shown)
VH: EVQLVESGGGLVKPGGSLKLSCEASGFTFSDYYMYWVRQTPEKRLEWVATISDDGSFTHYLDSVKGRFTISRDNAQNNLYLQMSSLKSDDTAMYYCARDGYRYDRPFAYWGQGTLVTVSA
VL: DIVMTQSHKFMSTSVGDRVRITCKASQDVNTAVAWYQQKPGQSPKLLIYWASTRHTGVPDRFTGSGSGTDYSLTISSVQAEDLALYYCQQHYSTPYTFGGGTKLEIKR
notes: The variable regions were found by 5'-RACE; Used unlabeled as capture antibody and biotin-labeled as detection antibody; also called biotin-labeled antibody 230-1
B2: binds.
